# Assay results: patent publication US20220380763A1, “NUCLEIC ACID DELIVERY ENHANCER” (NATIONAL UNIVERSITY CORPORATION KOCHI UNIVERSITY, priority 2019, published 2022)
# Where two headings read alike, the source gives them in different places. Numbered stars: 1 amine (or outer) side, 2 acyl side, 3 side chain; on linkers, the order of the positions; unused ones are H or OH. Square brackets hold non-standard residues; d marks the D form. Peptide text beside a SMILES is read from it. * marks the point of attachment. Pteroyl = Nc1nc2ncc(CNc3ccc(C(=O)*)cc3)nc2c(=O)[nH]1; γGlu = O=C(O)[C@H](CCC(=O)[*:2])N[*:1]; Dab = NCC[C@H](N)C(=O)O
# Tests used:
# [1] = tested on: bovine pancreas-derived RNase A; details: 1 or more equivalents; 10 nM siRNA, 37° C., 60 minutes
# Method: RNA-degrading enzyme resistance of the nucleic acid duplex was tested in the presence of a cationic oligopeptide.
# In this Example, peptides were added to the annealed RNA duplex to form a complex, and the rate of RNA degradation was measured.
# Subsequently, the mixture was kept at 95° C. for 5 minutes and then slowly cooled to 4° C. at −0.5° C./min.
# Thereafter, 15 μL of 100 μg/mL bovine pancreas-derived RNase A (manufactured by F. Hoffmann-La Roche, Ltd.) was added with stirring at 37° C., and fluorescence intensity measurement was started to track changes over time (excitation wavelength: 490 nm; measurement wavelength: 520 nm; and measurement time: 60 minutes).
# [2] = tested on: RNA duplex (siRNA, SEQ ID NO: 1 and 2); details: for Tm: 4 μM nucleic acid duplex, 100 mM NaCl, pH 7.0; for ΔTm: versus no peptide (72.3)
# Method: The melting temperature of the nucleic acid duplex was measured in the presence and absence of the cationic oligopeptide or folic acid-cationic oligopeptide complex synthesized in Example 1.
# In this Example, the cationic oligopeptide (Dab8) or the folic acid-cationic oligopeptide (Fol-Dab8A or Fol-Dab8B) was added to an annealed RNA duplex, and the melting temperature (Tm value) was measured. As the RNA duplex, an oligonucleotide pair consisting of the following sequences was used as an siRNA.
# After 144 μL of 50 μM nucleic acid solution was prepared and kept at 95° C. for 5 minutes, it was slowly cooled to 4° C. at −0.5° C./min. The solution was added to a mixed solution of pH 7.0 buffer containing 200 mM NaCl and 20 mM Na2HPO4—NaH2PO4 in OTSUKA DISTILLED WATER, and 0.1 mM peptide aqueous solution, and samples were adjusted to a final concentration of 10 mM Na2HPO4—NaH2PO4, 100 mM NaCl, 4 μM nucleic acid duplex, and 0, 4, 8, 12, 16, and 20 μM peptide (0, 1, 2, 3, 4, and 5 equivalents, respectively).
# The temperature was increased from 20° C. to 95° C. at 0.5° C./min, and the absorbance at 260 nm was measured to determine a melting curve. The absorbance at 320 nm was measured to remove background noise, and a melting curve was created by subtracting the absorbance at 320 nm from the absorbance at 260 nm, and the Tm value was determined by a median method.
# S2-013 cells = assay: Matrigel invasion assay; type: cell-based, human; details: versus scrambled control siRNA and siRNA alone
# Method: Each of the scrambled control siRNA, SNORA18 siRNA, NUP85 siRNA, WASF2 siRNA, and SNORA22 siRNA (all used in Example 5) with the folic acid-cationic oligopeptide complex added was added to the culture solution of S2-013 cells, and Matrigel invasion assay was performed after 48 hours.
# 4.0×10^4 cells were suspended in a serum-free medium and seeded in the upper chamber of a Matrigel Invasion Chamber (24-well plate, pore size: 8 μm, manufactured by Becton, Dickinson, and Company). A solvent containing 5% fetal bovine serum was added to the lower chamber. After the cells were incubated in the upper chamber for 20 hours, three independent areas were observed under a microscope, and the cells invading the lower chamber were counted. The same experiment was repeated three times, and the cell invasion ability of 52-013 cells into which each siRNA was taken up was compared.
# The “*” denotes a significant difference at P<0.05 as compared to the control in the t-test.
# Each of the scrambled control siRNA (SEQ ID NOs: 3 and 4), SNORA18 siRNA (SEQ ID NOs: 21 and 22), NUP85 siRNA (SEQ ID NOs: 23 and 24), WASF2 siRNA (SEQ ID NOs: 25 and 26), and SNORA22 siRNA (SEQ ID NOs: 27 and 28) was added with 2 equivalents of Dab8, Fol-Dab8A, or Fol-Dab8B to the culture solution of pancreatic cancer cell line S2-013 in culture. As a control, each of the control siRNA, SNORA18 siRNA, NUP85 siRNA, WASF2 siRNA, and SNORA22 siRNA was added alone to the culture solution of the S2-013 cells.
# After 48 hours of culture, the Matrigel invasion assay was performed. In the Matrigel invasion assay, the number of cells that have migrated from the upper chamber to the lower chamber is shown. The “*” denotes a significant difference at P<0.05 as compared to the control in the t-test.
# [3] = tested on: S2-013 pancreatic cancer cells; details: for incorporation efficiency of siRNA: among 1 to 3 equivalents; for incorporation efficiency of siRNA compared with Dab8: best equivalent versus Dab8 of 1 to 3 equivalents
# Method: Since it is difficult to distinguish between intracellularly incorporated labels and non-incorporated labels by flow cytometry, the uptake of siRNA into pancreatic cancer cells was observed using a confocal microscope.
# The pancreatic cancer cell line 52-013 (Cell Resource Center for Biomedical Research, Institute of Development, Aging and Cancer, Tohoku University, ID: TKG 0709) was seeded in a 4-well chamber slide (Thermo Fisher Scientific Inc.) at a cell density of 2×10^4 cells/well, and scrambled control siRNA (SEQ ID NOs: 3 and 4) labeled with Alexa647 (Thermo Fisher Scientific Inc.), and Dab8, Fol-Dab8A, or Fol-Dab8B in 1 to 3 equivalents to the siRNA were added and then cultured for 48 hours. The concentration of siRNA used was 8.28 μg/mL in 25 μL, and Dab8, Fol-Dab8A, and Fol-Dab8B were diluted 25-fold from the stock solution (Dab8: 119.3 μg/mL, Fol-Dab8A and Fol-Dab8B: 141.2 μg/mL) and used. The amounts corresponding to 1, 2, and 3 equivalents relative to siRNA are 3.9 μL, 7.8 μL, and 11.7 μL, respectively.
# The next day, the cells were fixed with 4% paraformaldehyde, sealed with a DAPI-containing encapsulant, and then observed with an all-in-one fluorescence microscope (BZ-X800, Keyence Corporation).
# To quantify the uptake, the hybrid cell count function of the Keyence analysis software BZ-X800 Analyzer was used to count cells into which siRNA was taken up in the presence of Dab8, Fol-Dab8A, and Fol-Dab8B. Determination was made by measuring cells with dark staining of at least ⅓ of the cell nuclei and cells with dark clumps in the periphery of the cell nuclei.
# [4] = chemically-modified NUP85 siRNA (SEQ ID NOs: 23 and 24) with 2 equivalents of peptide
# [5] = chemically-modified SNORA18 siRNA (SEQ ID NOs: 21 and 22) with 2 equivalents of peptide
# [6] = chemically-modified SNORA22 siRNA (SEQ ID NOs: 27 and 28) with 2 equivalents of peptide
# [7] = chemically-modified WASF2 siRNA (SEQ ID NOs: 25 and 26) with 2 equivalents of peptide
SMILES,rate of increase in fluorescence intensity (degradation of RNA duplex by RNase A) [1],Tm ([2]; 1 equivalent peptide) [°C],ΔTm ([2]; 1 equivalent peptide),Tm ([2]; 2 equivalents peptide) [°C],ΔTm ([2]; 2 equivalents peptide),Tm ([2]; 3 equivalents peptide) [°C],ΔTm ([2]; 3 equivalents peptide),Tm ([2]; 4 equivalents peptide) [°C],ΔTm ([2]; 4 equivalents peptide),Tm ([2]; 5 equivalents peptide) [°C],ΔTm ([2]; 5 equivalents peptide),invasion of S2-013 cells (S2-013 cells; [4]),invasion of S2-013 cells (S2-013 cells; [5]),invasion of S2-013 cells (S2-013 cells; [6]),invasion of S2-013 cells (S2-013 cells; [7]),incorporation efficiency of siRNA ([3]; 3 equivalents),incorporation efficiency of siRNA compared with Dab8 [3],incorporation efficiency of siRNA ([3]; 1 equivalent)
NCC[C@H](NC(=O)[C@H](CCN)NC(=O)[C@H](CCN)NC(=O)[C@H](CCN)NC(=O)[C@H](CCN)NC(=O)[C@H](CCN)NC(=O)[C@H](CCN)NC(=O)[C@H](CCN)NC(=O)CNC(=O)CNC(=O)CNC(=O)CC[C@H](NC(=O)c1ccc(NCc2cnc3nc(N)[nH]c(=O)c3n2)cc1)C(=O)O)C(N)=O [Fol-Dab8A] ({Pteroyl-γGlu}-GGG[Dab][Dab][Dab][Dab][Dab][Dab][Dab][Dab]-NH2),slower,75.2,2.9,76.8,4.5,77.7,5.4,78.7,6.4,79.1,6.8,significantly suppressed,significantly suppressed,significantly suppressed,significantly suppressed,highest incorporation efficiency,higher than Dab8,
NCC[C@H](NC(=O)[C@H](CCN)NC(=O)[C@H](CCN)NC(=O)[C@H](CCN)NC(=O)[C@H](CCN)NC(=O)[C@H](CCN)NC(=O)[C@H](CCN)NC(=O)[C@H](CCN)NC(=O)CNC(=O)CNC(=O)CNC(=O)[C@H](CCC(=O)O)NC(=O)c1ccc(NCc2cnc3nc(N)[nH]c(=O)c3n2)cc1)C(N)=O [Fol-Dab8B] (Pteroyl-EGGG[Dab][Dab][Dab][Dab][Dab][Dab][Dab][Dab]-NH2),slower,74.5,2.2,76.4,4.1,77.7,5.4,78.5,6.2,79.8,7.5,significantly suppressed,significantly suppressed,significantly suppressed,significantly suppressed,,higher than Dab8,highest incorporation efficiency
